According to US20230331848A1 (BIOSION, published 2023):
Where two headings read alike, the source gives them in different places.

T1: recombinant mouse PD-1-his protein (Cat#:50124-M08H, Sino Biological Inc) (mouse, UniProt Q02242 25-167)
T1 construct: Bought protein used in Biacore and indirect ELISA; not shown: his tag
T1 sequence (looked up): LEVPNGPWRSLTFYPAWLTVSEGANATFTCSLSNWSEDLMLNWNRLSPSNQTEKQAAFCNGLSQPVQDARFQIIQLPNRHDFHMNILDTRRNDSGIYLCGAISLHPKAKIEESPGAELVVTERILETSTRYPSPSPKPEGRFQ

T2: full length mouse PD-1 expressed on 293F-mouse PD-1 cells (mouse, UniProt Q02242 25-288)
T2 construct: also called cell surface mouse PD-1
T2 sequence: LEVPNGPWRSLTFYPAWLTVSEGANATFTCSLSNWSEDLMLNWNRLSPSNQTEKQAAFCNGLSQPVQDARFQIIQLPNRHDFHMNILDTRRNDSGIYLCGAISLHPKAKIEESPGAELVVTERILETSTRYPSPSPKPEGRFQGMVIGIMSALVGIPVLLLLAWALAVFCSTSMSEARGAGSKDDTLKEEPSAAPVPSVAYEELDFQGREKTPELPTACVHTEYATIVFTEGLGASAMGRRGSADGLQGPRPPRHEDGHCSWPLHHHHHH


Key:
[1] = molecular target: T3, cynomolgus PD-1-his protein (Cat#:PD1-05223, Acro biosystems Inc.) (cynomolgus, UniProt B0LAJ3 25-170); experiment: indirect ELISA on coated cynomolgus PD-1-his; unit from the axis 'Con of mAb, nM.'
T3 construct: Bought protein used in Biacore and indirect ELISA; also called monkey PD-1; Cyno PD-1
Experimental: (§1) Briefly, 96-well micro plates were coated with 100 μl 2 μg/ml mouse PD-1-his (Cat#:50124-M08H, Sino Biological Inc) or 2 μg,/ml cynomolgus PD-1-his (Cat#:PD1-05223, Acro biosystems Inc.) in carbonate/bicarbonate buffer (pH 9.6) for 2 hours at 37° C. Plates were washed once with wash buffer (PBST, PBS+0.05% Tween-20) and then blocked with 200 μl blocking buffer (5% w/v non-fatty milk in PBST) for 2 hours at 37° C. […] ELISA plates were washed 4 times and incubated with Peroxidase AffiniPure goat anti-mouse IgG, Fcγ Fragment Specific (1:5000 dilution in PBST buffer, Cat#:115-035-071, Jackson ImmunoResearch Laboratories, Inc., 100 μl/well) or Peroxidase AffiniPure F(ab′)₂ Fragment Goat Anti-Human IgG, Fcγ fragment specific (Cat#:109-036-098, Jackson ImmunoResearch, for the controls) for 40 minutes at 37° C. After a final wash, plates were incubated with 100 μl/well TMB (Cat#:TMB-S-002, innoreagents) at room temperature. The reaction was stopped 3-10 minutes later with 50 μl/well 1M H₂SO₄, and the absorbance was read on a microplate reader using dual wavelength mode with 450 nm for TMB and 630 nm as the reference wavelength. Then the OD (450-630) values were plotted against antibody concentrations. Data was analyzed using GraphPad Prism software and EC₅₀ values were reported.

[2] = molecular target: T1, recombinant mouse PD-1-his protein …; experiment: indirect ELISA on coated mouse PD-1-his
Experimental: as §1

[3] = molecular target: T3, cynomolgus PD-1-his protein …; experiment: indirect ELISA on coated cynomolgus PD-1-his; unit from the axis 'Con of mAb, nM.'; remark: listed apart in the source
Experimental: as §1

[4] = molecular target: T2, full length mouse PD-1 expressed on …; experiment: cell-based blocking FACS: 293F-mouse PD-1 cells incubated with antibody, then with mouse PD-L1-hFc (blocked ligand), detected with anti-human IgG Fc-PE; unit from the axis 'Con of mAb, nM.'
Experimental: Briefly, 293F-mouse PD-1 cells were harvested from cell culture flasks, washed twice and re-suspended in PBS containing 2% v/v Fetal Bovine Serum (FACS buffer). Then, 1×10⁵ cells per well in 96 well-plates were incubated in 100 μL of the anti-PD-1 antibodies or controls at various concentrations (starting at 80 nM with a 3-fold serial dilution) in FACS buffer for 40 minutes at 4° C. […] The plates were washed twice with FACS buffer, and then added and incubated for 40 minutes at 4° C. in dark with 100 μl/well R-Phycoerythrin AffiniPure Goat Anti-Human IgG, Fcγ fragment specific (1:1000 dilution in FACS buffer, Cat#:109-115-098, Jackson Immunoresearch). Cells were washed twice and re-suspended in FACS buffer. Fluorescence was measured using a Becton Dickinson FACS Canto II-HTS equipment. Data was analyzed using Graphpad Prism software and IC₅₀ values were reported.

[5] = molecular target: T4, human PD-1 expressed on GS-J2/PD-1 cells (Genscript) (human, UniProt Q15116 25-288); experiment: flow cytometry on GS-J2/PD-1 cells
T4 construct: whole, on cells; also called cell-surface human PD-1
Experimental: In specific, the 293F-mouse PD-1 cells and GS-J2/PD-1 cells were respectively harvested from cell culture flasks, washed twice and re-suspended in PBS containing 2% v/v Fetal Bovine Serum (FACS buffer). Then, 2×10⁵ cells per well were incubated in 96 well-plates with 100 μl of the anti-PD1 antibodies or controls at various concentrations for 40 minutes on ice. […] Following an incubation of 40 minutes at 4° C. in dark, cells were washed three times and re-suspended in FACS buffer. Fluorescence was measured using a Becton Dickinson FACS Canto II-HTS equipment and plotted against antibody concentrations. Data was analyzed using GraphPad Prism software and EC₅₀ values were reported.
For the cell-based binding FACS, R-Phycoerythrin AffiniPure Goat Anti-human IgG Fcγ fragment specific (Cat#:109-115-098, Jackson ImmunoResearch) was used for the humanized antibodies, with 1:1000 dilution in FACS buffer, 100 μl/well.

[6] = molecular target: T1, recombinant mouse PD-1-his protein …; experiment: indirect ELISA on coated mouse PD-1-his; unit from the axis 'Con of mAb, nM.'
Experimental: as §1

[7] = molecular target: T4, human PD-1 expressed on GS-J2/PD-1 …; experiment: cell-based or functional assay

T3 sequence (B0LAJ3 entry or part of it limits assumed): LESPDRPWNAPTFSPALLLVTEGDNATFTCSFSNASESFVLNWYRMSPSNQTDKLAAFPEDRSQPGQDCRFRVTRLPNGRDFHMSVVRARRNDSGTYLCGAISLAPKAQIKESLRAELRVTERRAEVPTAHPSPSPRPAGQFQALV
T4 sequence (Q15116 25-288): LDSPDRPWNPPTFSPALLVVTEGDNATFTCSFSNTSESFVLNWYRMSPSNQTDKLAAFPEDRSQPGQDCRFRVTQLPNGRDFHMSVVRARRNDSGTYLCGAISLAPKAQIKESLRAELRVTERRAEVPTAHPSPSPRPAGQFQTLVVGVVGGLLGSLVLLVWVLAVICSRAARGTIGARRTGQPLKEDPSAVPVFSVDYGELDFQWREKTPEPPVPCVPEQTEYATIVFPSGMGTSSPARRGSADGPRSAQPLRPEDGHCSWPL

EC50 [1]	binding result [2]	EC50 [3]	IC50 [4]	EC50 [5]	EC50 [6]	Cell-based functional assay (EC50, nM) [7]	Binder
0.142 nM	no binding (tested: 66.7 nM)						mouse anti-PD-1 monoclonal antibody E1G5D1H1 (antibody, V domains shown, Hybridoma-derived mouse mAb; also called EIG5D1H1; E1G5DIH1) VH: EVQLVESGGGLVKPGGSLKLSCAASGFTFSDFYMYWVRQTPEKRLEWVATISNSGTQTYYLDSVKGRFTISRDNAKNNLYLQMSSLKSEDTAMYYCARDYYRYDSWYFDVWGAGTTVTVSS VL: DIVLTQSPASLAVSQGQRATISCRASESVDFYGTSLMQWFQLKPGQPPKLLIYAASNVESGVPARFSGSGSGTNFSLNIHPVEEDDIAMYFCQQSRKVPWTFGGGTNLEIK
		0.121 nM	6.86 nM	0.44 nM	0.185 nM	6.62 nM	mouse anti-PD-1 monoclonal antibody E1A9C8A7 (antibody, V domains shown, Hybridoma-derived mouse mAb purified on Protein A; also called Mouse E1A9C8A7) VH: QVQLQQSGAEVVRPGVSVRISCKGSGYTFSDYVMHWMKQSHGESLEWIGVISTYHIPAVYNQKFKGKATMTVDKSSSTVYLELARLTSEDSAIYYCAREVYGDSYYFDVWGAGTTVTVSS VL: DVLMTQIPLSLPVSLGDQVSISCRSSQSIVHSNGNTYLEWYLQKPGQSPKLLIYKVSNRFSGVPDRFSGSGSGTDFTLKISRVEAEDLGVYYCFQGSHVPYTFGGGTKLEIK
		0.166 nM	2.49 nM		0.34 nM		mouse anti-PD-1 monoclonal antibody E2G4E10B7 (antibody, V domains shown, Hybridoma-derived mouse mAb; also called Mouse E2G4E10B7) VH: QVQLQQSGAELVRPGVSVKISCKGSGYTFTDYVMHWVRQSHAKSLEWIGVISTHFGDGVYNQKFKGKATMTVDKSSSTAYMELARLTSEDSAIYYCAREVYGDSWYFDVWGAGTTVTVSS VL: DVLMTQTPLSLPVSLGDQASISCRSSQSLVHSDGNTYLEWYLQKPGQSPKLLIYKVSNRFSGVPDRFSGSGSGTDFTLKISRLEAEDLGVYYCFQGSHVPYTFGGGTKLEIK
